This is an account of results in publication PMC3288073, “Aptamers as a Sensitive Tool to Detect Subtle Modifications in Therapeutic Proteins”.

In series [1] the target is thrombin (Recothrom), recombinant human (Homo sapiens, UniProt P00734;P00734 315-363;364-622). Description: ELISA (apparent Kd); 1 mM Mg2+; ELISA: 25 mM Tris, 10 mM NaCl, 1 mM MgCl2, pH 7.4, RT, 1 h; aptamers heated 95 C 10 min and refolded at RT 20 min; Kd unit (nM) from Results text. BLI: Octet RE. In general terms: In an ELISA, binding on a coated surface is turned into a signal by an enzyme label.

Series [2] has as its target thrombin (Thrombin JMI), bovine plasma (Bos taurus, UniProt P00735;P00735 318-366;367-625). The series is described as follows: ELISA; 1 mM Mg2+; ELISA: 25 mM Tris, 10 mM NaCl, 1 mM MgCl2, pH 7.4, RT, 1 h; aptamers heated 95 C 10 min and refolded at RT 20 min; Kd unit (nM) from Results text. BLI: Octet RE. Conditions: protein: native; copies: 1;1.

B1: Aptamer 30-8 (structured_DNA)
DNA: AGATGCCTGTCGAGCATGCTGTGAATAGGTAGGGTCGGATGGGCTACGGTGTAGCTAAACTGCTTTGTCGACGGG
Regarding B1, the Kd in series [1] worked out at 0.58 nM. Moreover, the binding result in series [2] is on record as “no binding”.

B2: Aptamer 30-38/27 (structured_DNA)
DNA: ACCCGTGGTAGGGTAGGATGGGGTGGT
In the case of B2, the Kd in series [1] amounted to 1.28 nM. Also, in series [2], the binding result is on record as “no binding”.

B3: Aptamer 30-14 (structured_DNA)
DNA: AGATGCCTGTCGAGCATGCTGTTGTGGTAGGGTTAGGGATGGTAGCGGTTGTAGCTAAACTGCTTTGTCGACGG
In the case of B3, the Kd in series [1] was found to be 2.75 nM. Further, the binding result in series [2] was “no binding”.

B4: Aptamer G15D (structured_DNA)
DNA: GGTTGGTGTGGTTGG
For the molecule B4, the Kd in series [1] stood at 1.48 nM.

B5: Aptamer 60-18/38 (structured_DNA)
DNA: CAGTCCGTGGTAGGGCAGGTTGGGGTGACTTCGTGGAA
In the case of B5, the Kd in series [1] was found to be 1.48 nM. Moreover, the binding result in series [2] is listed as “no binding”.

B6: Aptamer 30-16/27 (structured_DNA)
DNA: TACCGTGGTAGGGAAGGTTGGAGTGTA
Consider B6, for which the Kd in series [1] stood at 1.54 nM. Also, the binding result in series [2] is on record as “no binding”.
